Laboratory results reported in article doi:10.1101/091256 (bioRxiv, 2016).

Molecular target: T1, release factor RF2 (E. coli (K12 strain), UniProt P07012 1-365)
T1 sequence: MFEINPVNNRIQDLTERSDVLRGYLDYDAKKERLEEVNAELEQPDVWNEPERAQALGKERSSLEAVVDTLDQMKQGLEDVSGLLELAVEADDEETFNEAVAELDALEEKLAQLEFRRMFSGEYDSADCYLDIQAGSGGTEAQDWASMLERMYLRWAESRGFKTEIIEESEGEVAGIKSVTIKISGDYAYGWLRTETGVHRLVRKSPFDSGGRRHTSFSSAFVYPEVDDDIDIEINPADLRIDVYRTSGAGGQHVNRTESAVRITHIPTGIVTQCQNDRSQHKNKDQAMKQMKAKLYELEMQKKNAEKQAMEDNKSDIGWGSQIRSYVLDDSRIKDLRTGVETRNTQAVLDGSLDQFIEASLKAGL
Test: cryo-EM structure

B1: ArfA (alternative rescue factor A) (natural protein, E. coli, UniProt P36675 1-60, looked up)
chain: MSRYQHTKGQIKDNAIEALLHDPLFRQRVEKNKKGKGSYMRKGKHGNRGNWEASGKKVNH
binding result: binds
